Data taken from PMC9537153 (Nature Communications, 2022).
Like-named read-outs stand apart in the source and are kept apart here.

T1: biotinylated p19 (3D7 allele, non-glycosylated) with C-terminal Avi-tag and His6 tag (Plasmodium falciparum 3D7, enzymatically biotinylated on a C-terminal AviTag)
T1 chain: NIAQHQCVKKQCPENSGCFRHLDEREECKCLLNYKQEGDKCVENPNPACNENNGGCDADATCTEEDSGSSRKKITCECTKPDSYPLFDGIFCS

T2: p19, C-terminal 19 kDa fragment of Merozoite Surface Protein 1 (MSP-1), Plasmodium falciparum 3D7 allele, … (Plasmodium falciparum 3D7)
T2 chain: T1 chain

B1: 42C11 recombinant human IgG1 (hmAb 42C11) (antibody, V domains shown)
VH: QVQLVESGGGVVQPGGSLRLSCAASGFIFSSYSMHWVRQAPGKGLEWVAFIRYDGRREYYADSVKGRFTVSRDNIMNTVFLQMNNLRPEDTATYYCAKVGWTWVSEPADVWGEGATVTVSS
VL: QSVLTQPPSTSGTPGQGVTISCSGSRSNVGTNYVYWYQQIPGRAPKLLINRNTQRPSGVPVRFSGSKSGTTAFLAITGLRSEDEADYFCAVWDGDLSGVIFGGGTKVTVL
notes: IgG1; source: Expi293F cells, heavy- and light-chain plasmids co-transfected 1:1, purified (Protein A agarose, SEC)
B2: 42C11 Fab (naturally acquired human monoclonal antibody to p19) (Fab, V domains shown)
VH: B1 VH
VL: B1 VL
notes: source: Expi293F cells, transfected, purified from supernatant (Ni Sepharose Excel, SEC)
B3: 42A9 (antibody, V domains shown)
VH: QVQVVESGGGVVQPGGSLTLSCRASGFIFSDYGLHWVRQPPGKGLEWVALINYDGRNKYYADSVRGRFTISRDNSKNTLSLQMSSLRSGDTAIYFCARVGAKWASEPMDVWGRGTTVTVSS
VL: QSVLTQPPSASGTPGQRVTISCSGSTSNVGTNFVYWYHQRPGTAPKLLIYRNDERPSGVPDRISGSKSGASASLAISGLRSEDEGDYHCSAWDGSLRRLVFGGGTKLTVL
B4: 42D7 (antibody, V domains shown)
VH: EVQMVESGGGVVRPGGSLGLSCTASGFTFSNFGIYWVRQAPGKGLEWVAFTRYDGRNKYYGDSVKGRFTISRDNSKNTLYLQMNRLRHEDTGTYYCAKVGATWASEPMDVWGKGTTVMVSS
VL: QSVLTQPPSVSGTPGQRVTIYCSGSTSNVGTNFVYWYKQLPGAAPKLLISRNTQRPSGVPDRFSGSKSGTSAFLAISGLRSEDEASYHCSVWDGDLTGLVFGGGTKLTVL
B5: 42C5 (antibody, V domains shown)
VH: EVQLVESGGGVVQPGGSLRLSCAASGFIFSSYSMHWVRQAPGKGLEWVAFIRYDGNRKYYGDSVKGRFTVSRDNSMDTLSLHMTNLRPEDTAIYYCARVGWTWVSEPVDVWGEGATVTVAS
VL: QSVLTQPPSASGTPGQGVSISCSGSRSNVGTNYVYWYQQVPGTAPKLLILRNTQRPSGVPDRFSGSKSGSSASLAISGLRSADEGDYYCAVWDSNLDHVVFGGGTKVTVL

What was measured:
[1] = target: T3, full-length Merozoite Surface Protein 1 (MSP-1), Plasmodium falciparum 3D7 allele, non-glycosylated, His6 (Plasmodium falciparum 3D7, UniProt Q8I0U8); assay: ELISA; conditions: both partners purified
T3 construct: also called full-length MSP-1; source: Expi293F cells, transfected, purified from cell-free supernatant (Ni Sepharose Excel, SEC)

[2] = target: T1, biotinylated p19 (3D7 allele, …); assay: BLI; conditions: both partners purified
[3] = target: T3, full-length Merozoite Surface Protein 1 …
[4] = target: T2, p19, C-terminal 19 kDa fragment of …

T3 sequence (Q8I0U8 whole entry, looked up): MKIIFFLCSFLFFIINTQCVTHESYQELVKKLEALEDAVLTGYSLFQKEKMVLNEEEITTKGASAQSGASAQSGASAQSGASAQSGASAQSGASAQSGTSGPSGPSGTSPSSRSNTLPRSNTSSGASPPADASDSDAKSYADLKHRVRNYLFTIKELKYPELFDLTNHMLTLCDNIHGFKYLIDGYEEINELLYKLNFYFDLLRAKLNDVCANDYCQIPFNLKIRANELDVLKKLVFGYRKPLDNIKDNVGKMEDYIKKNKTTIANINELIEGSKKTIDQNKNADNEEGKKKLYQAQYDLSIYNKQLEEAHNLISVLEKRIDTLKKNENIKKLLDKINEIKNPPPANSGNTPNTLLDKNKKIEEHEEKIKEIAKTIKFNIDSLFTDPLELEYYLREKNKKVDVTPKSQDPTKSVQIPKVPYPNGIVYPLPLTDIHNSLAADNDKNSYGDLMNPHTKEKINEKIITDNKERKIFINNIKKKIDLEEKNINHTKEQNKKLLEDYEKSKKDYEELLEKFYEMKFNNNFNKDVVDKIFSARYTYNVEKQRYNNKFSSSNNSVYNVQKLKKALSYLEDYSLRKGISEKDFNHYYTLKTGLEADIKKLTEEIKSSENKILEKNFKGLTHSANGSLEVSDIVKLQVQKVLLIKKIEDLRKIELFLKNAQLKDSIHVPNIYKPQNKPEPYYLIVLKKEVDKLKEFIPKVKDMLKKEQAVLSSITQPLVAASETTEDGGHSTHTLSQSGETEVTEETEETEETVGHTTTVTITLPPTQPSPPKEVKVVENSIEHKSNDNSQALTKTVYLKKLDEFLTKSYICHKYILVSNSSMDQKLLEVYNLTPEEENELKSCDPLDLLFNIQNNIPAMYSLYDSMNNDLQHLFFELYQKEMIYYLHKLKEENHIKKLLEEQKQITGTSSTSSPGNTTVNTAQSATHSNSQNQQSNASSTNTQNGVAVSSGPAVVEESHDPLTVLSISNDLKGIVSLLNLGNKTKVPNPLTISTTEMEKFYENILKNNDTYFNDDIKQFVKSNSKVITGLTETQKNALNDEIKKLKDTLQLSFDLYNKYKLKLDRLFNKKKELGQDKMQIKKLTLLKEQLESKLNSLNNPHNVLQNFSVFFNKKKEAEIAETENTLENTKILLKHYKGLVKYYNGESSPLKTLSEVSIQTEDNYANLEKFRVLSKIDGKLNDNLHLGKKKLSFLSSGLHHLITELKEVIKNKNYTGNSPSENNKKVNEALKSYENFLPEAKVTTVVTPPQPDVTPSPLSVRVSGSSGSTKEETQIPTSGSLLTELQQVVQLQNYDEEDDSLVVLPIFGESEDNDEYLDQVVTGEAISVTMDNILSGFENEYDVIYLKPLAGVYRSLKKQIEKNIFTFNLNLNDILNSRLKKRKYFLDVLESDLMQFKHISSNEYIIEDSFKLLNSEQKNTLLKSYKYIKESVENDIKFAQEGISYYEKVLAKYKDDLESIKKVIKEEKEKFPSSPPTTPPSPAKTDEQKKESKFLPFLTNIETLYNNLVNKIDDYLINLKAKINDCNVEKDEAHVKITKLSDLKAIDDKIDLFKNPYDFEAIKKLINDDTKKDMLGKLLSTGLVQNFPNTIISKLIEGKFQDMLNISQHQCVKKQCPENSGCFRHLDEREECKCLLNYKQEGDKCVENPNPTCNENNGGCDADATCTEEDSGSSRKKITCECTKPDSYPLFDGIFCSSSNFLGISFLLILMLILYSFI

Binder | binding result [3] | Kd [4] | further results
B1 |  |  | binding result [1]: binds
B2 |  |  | Kd [2]: 1.84 nM; koff [2]: 0.00047 s⁻¹; kon [2]: 255000 M⁻¹ s⁻¹
B3 | binds | 0.73 nM | 
B4 | binds | 6.2 nM | 
B5 | binds | 3.29 nM | 
